Results: paper PMC7948974, “Heme oxygenase-1 affects cytochrome P450 function through the formation of heteromeric complexes: Interactions between CYP1A2 and heme oxygenase-1” (The Journal of Biological Chemistry, 2020)

Target: T1, GFP-HO-1 (heme oxygenase 1 with an N-terminal GFP2 tag) (human, UniProt P09601 1-288)
T1 sequence (looked up): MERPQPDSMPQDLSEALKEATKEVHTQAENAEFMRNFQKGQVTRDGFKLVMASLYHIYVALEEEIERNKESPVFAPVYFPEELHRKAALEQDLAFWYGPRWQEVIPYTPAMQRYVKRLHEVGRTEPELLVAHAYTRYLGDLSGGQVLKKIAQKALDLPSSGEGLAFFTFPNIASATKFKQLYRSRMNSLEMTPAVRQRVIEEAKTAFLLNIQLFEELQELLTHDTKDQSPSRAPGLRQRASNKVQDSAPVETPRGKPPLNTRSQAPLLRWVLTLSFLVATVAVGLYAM
Experiment: cell-based or functional assay

- apparent Km^POR•HO-1 from HO-1-mediated heme degradation against POR concentration 0.025-0.5 μM; purified recombinant HO-1 (0.1 μM) and POR in DLPC, in the presence of 0.1 μM CYP1A2: 0.024 µM
B1: POR-Rluc (NADPH-cytochrome P450 reductase with a C-terminal Rluc tag) (enzyme, human, UniProt P16435 1-677, looked up)
chain: MGDSHVDTSSTVSEAVAEEVSLFSMTDMILFSLIVGLLTYWFLFRKKKEEVPEFTKIQTLTSSVRESSFVEKMKKTGRNIIVFYGSQTGTAEEFANRLSKDAHRYGMRGMSADPEEYDLADLSSLPEIDNALVVFCMATYGEGDPTDNAQDFYDWLQETDVDLSGVKFAVFGLGNKTYEHFNAMGKYVDKRLEQLGAQRIFELGLGDDDGNLEEDFITWREQFWPAVCEHFGVEATGEESSIRQYELVVHTDIDAAKVYMGEMGRLKSYENQKPPFDAKNPFLAAVTTNRKLNQGTERHLMHLELDISDSKIRYESGDHVAVYPANDSALVNQLGKILGADLDVVMSLNNLDEESNKKHPFPCPTSYRTALTYYLDITNPPRTNVLYELAQYASEPSEQELLRKMASSSGEGKELYLSWVVEARRHILAILQDCPSLRPPIDHLCELLPRLQARYYSIASSSKVHPNSVHICAVVVEYETKAGRINKGVATNWLRAKEPAGENGGRALVPMFVRKSQFRLPFKATTPVIMVGPGTGVAPFIGFIQERAWLRQQGKEVGETLLYYGCRRSDEDYLYREELAQFHRDGALTQLNVAFSREQSHKVYVQHLLKQDREHLWKLIEGGAHIYVCGDARNMARDVQNTFYDIVAELGAMEHAQAVDYIKKLMTKGRYSLDVWS
